Laboratory results published in article PMC9540186 (The Plant Journal, 2022).

Molecular target: the molecule itself
Test: SDS-PAGE of non-boiled extracts with Western blot

B1: GFP‐NtUVR8 fusion protein (full‐length Nicotiana tabacum UVR8) (receptor, UniProt A0A1S4AB85 1-441, looked up)
chain: MAADGSSERAVSRKVLLISAGASHSVALLSANVVCSWGRGEDGQLGLGDAEDRFSPTQVSALDEQQIVSVTCGADHATAYSEALKQVYSWGWGDFGRLGHGNSSDLFTPQPIKALHGICIKQIACGDSHCLAVTMEGEVQSWGRNQNGQLGLGTTEDSLVPQKIEAFKGIPVKMVAAGAEHTAAVTEDGELYGWGWGRYGNLGLGDRNDRLVPVKVSATVGEKMFMVACGWRHTICVSSSGSLYTYGWSKYGQLGHGDFEDHLFPHKVQALHDSFTSQISGGWRHTMALTADGELYGWGWNKFGQVGVGDNVDHCSPVQVKFPHDQKVILISCGWRHTLAVTERQNVFSWGRGTNGQLGHGESVDRNVPRIIEALSVDGSSGQQIGSSTSDPSAAEKSWVSPTERYAVVPNENVPKQTVTSVKGNGNDVNVPENDVKRIRL
For B1, which “stoichiometry N” value is on record?
Its value is 2.
